How the values were obtained:
MSCs [1] = assay: MSC attachment to substrate-bound tropoelastin (EDTA inhibition, cation add-back); type: cell-based, Human; conditions: cation-free environment
Description: MSCs were seeded at a density of 1.5×10^5 cells/cm^2 on tropoelastin-coated wells in serum-free α-MEM containing 0-9 mM ethylenediaminetetraacetic acid (EDTA) (Sigma-Aldrich®). The cells were incubated for 1 hour at 37° C., then washed with PBS to remove unbound cells. Bound cells were fixed, stained and measured for absorbance at 570 nm as described for the proliferation assays. The percentage of cell attachment was determined relative to a set of standards with known cell numbers.
MSCs were washed with cation-free PBS, centrifuged at 270 g for 5 min, and resuspended in cation-free PBS. The cells were seeded at a density of 1.5×10^5 cells/cm^2 on tropoelastin-coated wells in the presence of 0-0.5 mM cation (Mg^2+, Ca^2+ or Mn^2+) and incubated for 45 min at 37° C. Bound cells were fixed and stained, and cell attachment was quantified as previously described.

MSCs [2] = assay: Cell migration via chemotaxis (Boyden chamber); type: cell-based, Human; conditions: tropoelastin in solution, lower chamber
Description: Chemotaxis was measured using a fluorimetric 96-well Boyden chamber assay system (QCM Chemotaxis Cell Migration Assay, Millipore) according to the supplier's instructions. Normal, tropoelastin-supplemented, or growth factor-supplemented media was added to the lower chamber of the well plate, while MSCs were seeded at 14,300 cells/cm^2 in normal media into the upper chamber. Where indicated, integrin-blocking antibodies were added at optimized concentrations to the upper chamber with the cells. Cells that migrate through the permeable membrane into the lower chamber were detached and quantified. Normalized cell migration was calculated by subtracting the extent of undirected cell migration (where no chemoattractant was added to the lower chamber) from each experimental result.

MSCs [3] = assay: MSC chondrogenic differentiation (glycosaminoglycans, Alcian Blue); type: cell-based, Human; conditions: for decreased MSC chondrogenesis: tropoelastin addition during differentiation
Description: (§1) MSCs were grown in various media formulations and on bare or protein-coated tissue culture wells for 7 days. The expanded cells were harvested, re-seeded on TCP, and differentiated into the adipogenic, osteogenic and chondrogenic lineages using the hMSC Adipogenic BulletKit®, hMSC Osteogenic BulletKit®, and hMSC Chondrogenic BulletKit® (Lonza), respectively, following the manufacturer's instructions.
To confirm chondrogenesis, cell pellets that had been induced for 14 days were washed with PBS, embedded in 1.5% (w/v) agar containing 0.85% (w/v) NaCl, and fixed with 10% (v/v) formalin overnight. The samples were dehydrated in 70% (v/v) ethanol for 1 day, then paraffin-embedded, sectioned, mounted onto slides, stained with Alcian Blue (pH 2.5) for 1 hour and counterstained with Nuclear Fast Red. Samples were imaged with an Olympus VS120 Slide Scanner.

MSCs [4] = assay: MSC osteogenic differentiation (mineralized calcium, Alizarin Red S); type: cell-based, Human
Description: as §1
To confirm osteogenesis, cells that had been induced for 14 days were fixed and stained for mineralized calcium deposits with Alizarin Red S, as previously described. Cells from the adipogenic and osteogenic experiments were imaged with a Zeiss Axio Vert.A1 microscope using an AxioCam 105 colour camera.

[5] = molecular target: αv integrins (all αv subunit integrins) on human MSCs (human, UniProt P06756 31-1048); assay: cell-based or functional assay
MSCs [6] = assay: Cell migration via haptotaxis; type: cell-based, Human; conditions: 5 days post-seeding
Description: Polydimethylsiloxane (PDMS) was casted into 3D printed molds to create a circular shape with three rectangular cutouts, in which the middle rectangle was equidistant from the flanking rectangles. The PDMS stencil was placed inside a well plate and pressed tightly against the well surface to create watertight seal. The top and bottom rectangular chambers were filled with tropoelastin solution (20 μg/mL) or PBS, respectively, and air dried overnight. MSCs (1.2×10^6 cells/cm^2) were seeded into the middle chamber and allowed to attach for at least 2 hrs. The PDMS stencil was removed, and the culture well was covered with normal media. For up to 5 days, cells were stained daily with NucBlue™ Live ReadyProbes™ Reagent (Life Technologies) for 15 min, washed once with PBS, covered with normal media, and imaged under fluorescence at 360/460 nm using a Nikon Ti-E Live Cell Microscope. Cell migration into regions defined by tropoelastin or PBS coating was quantified via relative fluorescent areas using ImageJ software.

[7] = TE days 2-5, 3-6 or 4-7 of 7-day proliferation period

αv integrins (all αv subunit integrins) on human MSCs, sequence (P06756 31-1048, form in doubt): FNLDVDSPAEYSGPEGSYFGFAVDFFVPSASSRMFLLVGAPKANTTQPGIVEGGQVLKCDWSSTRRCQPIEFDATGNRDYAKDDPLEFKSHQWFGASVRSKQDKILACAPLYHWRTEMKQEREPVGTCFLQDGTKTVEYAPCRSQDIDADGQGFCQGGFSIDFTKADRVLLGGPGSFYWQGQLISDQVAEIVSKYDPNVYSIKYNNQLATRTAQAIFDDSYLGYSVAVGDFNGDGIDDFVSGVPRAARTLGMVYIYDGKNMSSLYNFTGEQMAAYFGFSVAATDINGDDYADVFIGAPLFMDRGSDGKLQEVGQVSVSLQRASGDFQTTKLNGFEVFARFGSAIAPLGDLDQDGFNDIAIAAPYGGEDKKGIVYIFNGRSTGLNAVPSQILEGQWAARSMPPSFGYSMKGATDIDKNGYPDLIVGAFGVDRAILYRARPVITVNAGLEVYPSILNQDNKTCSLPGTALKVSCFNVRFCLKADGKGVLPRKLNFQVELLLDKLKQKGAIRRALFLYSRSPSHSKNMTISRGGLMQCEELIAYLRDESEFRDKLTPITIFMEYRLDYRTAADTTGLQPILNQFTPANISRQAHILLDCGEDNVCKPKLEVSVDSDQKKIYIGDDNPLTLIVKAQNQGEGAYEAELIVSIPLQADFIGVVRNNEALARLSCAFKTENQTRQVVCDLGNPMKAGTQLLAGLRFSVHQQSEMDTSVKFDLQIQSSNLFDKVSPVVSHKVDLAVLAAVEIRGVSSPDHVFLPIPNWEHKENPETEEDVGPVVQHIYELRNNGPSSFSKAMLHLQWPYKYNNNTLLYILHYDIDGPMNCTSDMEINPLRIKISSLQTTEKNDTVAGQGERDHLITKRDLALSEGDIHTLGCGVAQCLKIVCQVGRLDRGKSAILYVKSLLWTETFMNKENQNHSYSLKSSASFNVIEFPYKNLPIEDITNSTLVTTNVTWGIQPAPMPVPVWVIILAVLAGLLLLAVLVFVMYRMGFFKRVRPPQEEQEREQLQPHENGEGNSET

B1: recombinant human tropoelastin (Elastagen) (ligand, UniProt P15502-2 27-724, looked up)
chain: GGVPGAIPGGVPGGVFYPGAGLGALGGGALGPGGKPLKPVPGGLAGAGLGAGLGAFPAVTFPGALVPGGVADAAAAYKAAKAGAGLGGVPGVGGLGVSAGAVVPQPGAGVKPGKVPGVGLPGVYPGGVLPGARFPGVGVLPGVPTGAGVKPKAPGVGGAFAGIPGVGPFGGPQPGVPLGYPIKAPKLPGGYGLPYTTGKLPYGYGPGGVAGAAGKAGYPTGTGVGPQAAAAAAAKAAAKFGAGAAGVLPGVGGAGVPGVPGAIPGIGGIAGVGTPAAAAAAAAAAKAAKYGAAAGLVPGGPGFGPGVVGVPGAGVPGVGVPGAGIPVVPGAGIPGAAVPGVVSPEAAAKAAAKAAKYGARPGVGVGGIPTYGVGAGGFPGFGVGVGGIPGVAGVPGVGGVPGVGGVPGVGISPEAQAAAAAKAAKYGVGTPAAAAAKAAAKAAQFGLVPGVGVAPGVGVAPGVGVAPGVGLAPGVGVAPGVGVAPGVGVAPGIGPGGVAAAAKSAAKVAAKAQLRAAAGLGAGIPGLGVGVGVPGLGVGAGVPGLGVGAGVPGFGAVPGALAAAKAAKYGAAVPGVLGGLGALGGVGIPGGVVGAGPAAAAAAAKAAAKAAQFGLVGAAGLGGLGVGGLGVPGVGGLGGIPPAAAAKAAKYGAAGLGGVLGGAGQFPLGGVAARPGFGLSPIFPGGACLGKACGRKRK
With B1 the “MSC adhesion to tropoelastin” value (MSCs [1]) was 20.0±2.1%, the “chemotactic response of MSCs” value (MSCs [2]) was “dose-dependent chemotactic response” and the “effect on chondrogenic differentiation” value (MSCs [3]; TE added during the induction stage) was “inhibited chondrogenic differentiation”. For the same molecule, the “pro-chondrogenic effects versus timing of exposure during expansion” value (MSCs [3]; [7]) was “observed only when tropoelastin was present in the early stages of expansion”, the “concentration during induction stage that significantly inhibited chondrogenic differentiation” value (MSCs [3]; TE present during induction) was ≥ 2 µg/mL and the glycosaminoglycan production (MSCs [3]; expanded in 20 μg/ml TE, induced in the absence of TE) was “highest extent of glycosaminoglycan production”. For the same molecule, the “glycosaminoglycan levels compared to cells expanded without TE” value (MSCs [3]; expanded in presence of TE, TE not present during differentiation) was “increased glycosaminoglycan levels”, the “increased chondrogenesis compared to cells exposed from days 4-7” value (MSCs [3]; exposed days 2-5 of expansion period) was 71% and the improved chondrogenesis (MSCs [3]; tropoelastin addition during MSC expansion) was 134%. The “decreased MSC chondrogenesis” value (MSCs [3]; cells expanded with tropoelastin) was 80%, the “decreased MSC chondrogenesis” value (MSCs [3]; cells expanded without tropoelastin) was 63% and the “osteogenesis versus timing of exposure during expansion” value (MSCs [4]; [7]) was “maximum effect associated with tropoelastin exposure in the later stages of expansion”. For the same molecule, the “increased osteogenesis compared to cells grown on TCP” value (MSCs [4]; cells grown on coating) was 113%, the mineralized calcium (MSCs [4]; cells induced and exposed to TE) was “increase in mineralized calcium concentrations” and the “MSC osteogenesis with tropoelastin added to hyaluronic acid” value (MSCs [4]; different molecular weight hyaluronic acid formulations) was “promoted MSC osteogenesis”. The “increased osteogenesis compared to cells exposed from days 2-5” value (MSCs [4]; exposed days 4-7 of seven-day expansion) was 24%, the osteogenesis dose response (MSCs [4]; grown in at least 2 μg/mL TE and induced in 20 μg/mL TE) was “Maximum osteogenesis” and the improved osteogenesis (MSCs [4]; tropoelastin addition during differentiation) was 55%. For the same molecule, the increased osteogenesis (MSCs [4]; tropoelastin during both expansion and differentiation stages) was “up to 131%”, the improved osteogenic potential (MSCs [4]; tropoelastin present during MSC expansion) was 42% and the “focal adhesions per cell (vinculin staining) of MSCs on tropoelastin compared to those on BSA” value [5] was 1.5 fold. For the same molecule, the “more cells migrated to the tropoelastin-coated region compared to the control” value (MSCs [6]) was 45±8%.
